Test results from paper PMC4730607, “DNA-binding sequence specificity of DUX4”.

B1: SELEX4 (dsDNA)
DNA 1: GGCAGTCTAATGTTTTATAGTCGGC
DNA 2: GCCGACTATAAAACATTAGACTGCC
B2: MALR (dsDNA)
DNA 1: GGCAGTCTAATTGAATCAAGTCGGC
DNA 2: GCCGACTTGATTCAATTAGACTGCC
B3: DUX4(half) (dsDNA)
DNA 1: GGCAGTCCAGCGTAATCAAGTCGGC
DNA 2: GCCGACTTGATTACGCTGGACTGCC
B4: Pitx1-25 (dsDNA)
DNA 1: GGCAGTCTTCTAATTAGTAGTCGGC
DNA 2: GCCGACTACTAATTAGAAGACTGCC
B5: DUX4(TT) (dsDNA)
DNA 1: GGCAGTCTAATTTAATCAAGTCGGC
DNA 2: GCCGACTTGATTAAATTAGACTGCC
B6: DUX4(TC) (dsDNA)
DNA 1: GGCAGTCTAATTCAATCAAGTCGGC
DNA 2: GCCGACTTGATTGAATTAGACTGCC
B7: DUX4(CC) (dsDNA)
DNA 1: GGCAGTCTAATCCAATCAAGTCGGC
DNA 2: GCCGACTTGATTGGATTAGACTGCC
B8: DUX4(mut) (dsDNA)
DNA 1: GGCAGTCGTGAATAATCAAGTCGGC
DNA 2: GCCGACTTGATTATTCACGACTGCC
B9: SELEX2 (dsDNA)
DNA 1: GGCAGTCTAATTCAATCCAGTCGGC
DNA 2: GCCGACTGGATTGAATTAGACTGCC

These binders were tested against T1, DUX4 DNA-binding domain (DUX4-HD, both homeodomains) (UniProt Q9UBX2 19-152) (assay: EMSA; excess protein; Direct EMSA: 10 uL 100 uM probe + 20 uL 250 uM protein (protein stock in 500 mM NaCl, 20 mM Tris-Cl pH 7.4), 1 h on ice, 3% agarose, EtBr; competition: 10 uL 100 uM competitor, 2 uL 125 uM protein (50% glycerol, 250 mM NaCl, 10 mM Tris-Cl pH 7.4), 2 uL 100 uM FAM-CT, 30 uL total, 1 h on ice). Details: protein: recombinant; tags: N-terminal His6 removed by TEV (first construct); His-SUMO fusion (later construct); blunt.
T1 sequence (Q9UBX2 19-152): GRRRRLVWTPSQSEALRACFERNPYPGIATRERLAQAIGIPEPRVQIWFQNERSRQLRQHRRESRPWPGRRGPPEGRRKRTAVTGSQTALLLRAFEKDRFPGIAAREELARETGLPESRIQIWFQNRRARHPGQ

| Binder | binding result |
| --- | --- |
| B1 | no binding |
| B2 | binds |
| B3 | no binding |
| B4 | no binding |

The binders below were run against T1, DUX4 DNA-binding domain (DUX4-HD, both …) (assay: competition; vs FAM-CT; Direct EMSA: 10 uL 100 uM probe + 20 uL 250 uM protein (protein stock in 500 mM NaCl, 20 mM Tris-Cl pH 7.4), 1 h on ice, 3% agarose, EtBr; competition: 10 uL 100 uM competitor, 2 uL 125 uM protein (50% glycerol, 250 mM NaCl, 10 mM Tris-Cl pH 7.4), 2 uL 100 uM FAM-CT, 30 uL total, 1 h on ice). Details: protein: recombinant; tags: N-terminal His6 removed by TEV (first construct); His-SUMO fusion (later construct); blunt.

| Binder | binding result |
| --- | --- |
| B5 | binds |
| B6 | binds |
| B7 | binds |
| B8 | no binding |

These binders were tested against T1, DUX4 DNA-binding domain (DUX4-HD, both …) (assay: competition; vs FAM-CT; CT competed best; Direct EMSA: 10 uL 100 uM probe + 20 uL 250 uM protein (protein stock in 500 mM NaCl, 20 mM Tris-Cl pH 7.4), 1 h on ice, 3% agarose, EtBr; competition: 10 uL 100 uM competitor, 2 uL 125 uM protein (50% glycerol, 250 mM NaCl, 10 mM Tris-Cl pH 7.4), 2 uL 100 uM FAM-CT, 30 uL total, 1 h on ice). Details: protein: recombinant; tags: N-terminal His6 removed by TEV (first construct); His-SUMO fusion (later construct); blunt.

| Binder | binding result |
| --- | --- |
| B9 | binds |
